{
  "source": "patent US20070020687A1",
  "about": "(CYTOSKELETON, published 2007)",
  "binders": {"B1": {"name": "rhotekin-Cys effector-GBD as tested in the G-LISA (other, mouse)", "chain": "ILEDLNMLYIRQMALSLEDTELQRKLDHEIRMRDGAEKLLAALSQREQALEATKSLLVSNSRILSYMGELQRRKEAQVLEKTGC", "notes": "range 7-89; also called modified effector-GBD; Rhotekin-Cys-no tag"}, "B2": {"name": "POSH effector-GBD peptide, histidine tagged (other)", "chain": "KHSDTKKNTKKRHSFTSLTMANKSSQASQNRHSMEISPPVLISSSNPTAAARISELSGLSCSAPSQVHISTTG", "notes": "range 291-363; Linked to maleimide plates through the naturally occurring cysteine at position 351; also called POSH-GBD; POSH-His; not shown: N-terminal histidine tag of vector pRSET-A"}, "B3": {"name": "PAK-GBD-GST peptide (other)", "chain": "KEKERPEISLPSDFEHTIHVGFDAVTGEFTGMPEQWARLLQTSNITKSEQKKNPQAVLDVLEFYNSKKTSNSQKYMSFTDKSAEC", "notes": "range 68-151; also called PAK1-GST; PAK-GST; not shown: Glutathione S transferase tag of vector pGEX-4T with thrombin site, N-terminal"}, "B4": {"name": "WASP effector-GBD peptide, histidine tagged, with engineered carboxy terminal cysteine (other, human)", "chain": "DIQNPDITSSRYRGLPAPGPSPADKKRSGKKKISKADIGAPSGFKHVSHVGWDPQNGFDVNNLDPDLRSLFSRAGISEAQLTDAETSKLIYDFIEDQGGLEAVRQEMRRQEPLPPPPPPSRC", "notes": "range 201-321; Linked covalently to maleimide plates; also called WASP-GBD; WASP-His; not shown: N-terminal histidine tag of vector pRSET-A"}, "B5": {"name": "constitutively active recombinant Cdc42, glutamine 61 to leucine, histidine tagged (enzyme)", "chain": "not shown", "notes": "Bought protein; also called Cdc42 (61L); constitutively active Cdc42; not shown: histidine tag"}, "B6": {"name": "ROCK-GST peptide (other)", "chain": "EAEQYFSTLYKTQVKELKEEIEEKNRENLKKIQELQNEKETLATQLDLAETKAESEQLARGLLEEQYFELTQESKKAASRNRQEITDKDHTVSRLEEANSMLTKDIEILRRENEELTEKMKKAEEEYKLEKEEEISNLKAAFEKNINTERTLKTQAVNKLAEIMNRKDFKIDRKKANT", "notes": "domain: GBD; a GST fusion of ROCK is described nowhere else; also called ROCK-GBD; RhoA effector ROCK-GBD; not shown: Glutathione S transferase tag"}, "B7": {"name": "ROCK1 effector-GBD peptide, histidine tagged, with engineered carboxy terminal cysteine (other, human)", "chain": "EAEQYFSTLYKTQVKELKEEIEEKNRENLKKIQELQNEKETLATQLDLAETKAESEQLARGLLEEQYFELTQESKKAASRNRQEITDKDHTVSRLEEANSMLTKDIEILRRENEELTEKMKKAEEEYKLEKEEEISNLKAAFEKNINTERTLKTQAVNKLAEIMNRKDFKIDRKKANTC", "notes": "range 847-1024; Linked covalently to maleimide plates through the C-terminal cysteine; also called ROCK1-GBD; ROCK-GBD; not shown: N-terminal histidine tag of vector pRSET-A"}},
  "key": {"[1]": {"molecular_target": "T1, constitutively active recombinant RhoA, glutamine 63 to leucine, histidine tagged (Homo sapiens (Human), UniProt P61586 1-193, limits assumed)", "T1 construct": "Bought protein; unable to hydrolyse GTP; also called RhoA (63L); R63; not shown: histidine tag", "T1 sequence (P61586 whole entry Q63L)": "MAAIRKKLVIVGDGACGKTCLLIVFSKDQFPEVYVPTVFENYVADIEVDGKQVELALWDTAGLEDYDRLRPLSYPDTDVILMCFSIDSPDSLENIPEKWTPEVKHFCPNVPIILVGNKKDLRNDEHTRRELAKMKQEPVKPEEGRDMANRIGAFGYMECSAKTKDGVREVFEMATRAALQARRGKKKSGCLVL", "experiment": "G-LISA with rhotekin-Cys effector-GBD on plate, data not shown"}, "[2]": {"molecular_target": "T2, constitutively active recombinant Rac1, glutamine 61 to leucine, histidine tagged (Homo sapiens (Human), UniProt P63000 1-192)", "experiment": "Rac1 G-LISA, POSH-GBD on maleimide plate, detection with anti-Rac1 GL06, absorbance 490 nm", "protocol": "(§1) Active Rho protein (typically 7-15 μg total cell lysate or 1-5 ng of constitutively active recombinant protein) were either added directly to the effector bound G-LISA plate (Rac1 and Cdc42 G-LISAs) or diluted with an equal volume of Binding Buffer (20% PEG 8000, Sigma, St. Louis, Mo.) prior to adding to effector bound plates (RhoA G-LISA). The reactions were incubated for 30 minutes at 4° .C on a microtiter titer plate shaker after which wells were washed once with 200 μl of PBST (PBS pH 7.2, 0.05% Tween-20) and immediately treated with 200 μl of Antigen Presenting Buffer (1% trichloroacetic acid (TCA)) for 2-5 minutes at room temperature. […] For RhoA and Rac1 reactions goat anti-mouse secondary at 2 μg/ml is used, for RhoA,B,C reactions donkey anti-chicken secondary at 0.5 μg/ml is used, for Cdc42 reactions goat anti-sheep secondary antibody is used at 0.5 μg/ml. After three washes each of 200 μl PBST the activated Rho proteins are detected using absorbance or luminescence detection as described below."}, "[3]": {"molecular_target": "active Rac1, sample not stated (Homo sapiens (Human), UniProt P63000 1-189)", "experiment": "G-LISA with and without TCA Antigen Presenting Buffer"}, "[4]": {"molecular_target": "T2, constitutively active recombinant Rac1, …", "experiment": "Rac1 G-LISA on POSH plate with 2 minute Antigen Presenting Buffer (1% TCA), absorbance 490 nm", "method": "The reactions were incubated for 30 minutes at 4° C. on a microtiter titer plate shaker after which wells were washed once with 200 μl of PBST (PBS pH 7.2, 0.05% Tween-20) and immediately treated with 200 μl of Antigen Presenting Buffer (1% trichloroacetic acid (TCA)) for 2-5 minutes at room temperature. Wells were then washed three times with 200 μl each of PBST and primary Rac1 antibody was added at 1 μg/ml and incubated at room temperature for 45 minutes. Wells were washed three times with 200 μl each of PBST and incubated with anti-mouse secondary antibody for 45 minutes at room temperature. After three washes each of 200 μl PBST, the activated Rho proteins were detected using absorbance detection. Absorbance was measured at OD₄₉₀ in a spectrophotometer (SpectraMax 250, Molecular Devices) after addition of 50 μl of OPD substrate (Sigma Catalog # P9187) for 15 minutes at 37° C. followed by addition of 50 μl of stop buffer (1M sulfuric acid).\nReferring to FIG. 5B, lysis buffer only (Blank) or 5 ng of Rac1 (61L) were subjected to Rac1 G-LISA assay as described in the materials and methods except that the assays were performed either with or without Antigen Presenting Buffer treatment (1% TCA or No APB respectively) Rac1 signal was detected by absorbance at 490 nm as described in the materials and methods."}, "[5]": {"molecular_target": "T3, endogenous Rac1 of human platelet extract loaded with GTPγS (human, UniProt P63000 1-189)", "experiment": "Rac1 G-LISA on POSH-GBD maleimide plate, GDP or GTPγS loaded platelet extract, absorbance 490 nm", "protocol": "as §1"}, "[6]": {"molecular_target": "T2, constitutively active recombinant Rac1, …", "experiment": "competition in Rac1: POSH G-LISA, 5 ng Rac1 (61L), POSH-GBD maleimide plate, PAK-GBD-GST at 0 to 10 µM"}, "[7]": {"molecular_target": "T2, constitutively active recombinant Rac1, …", "experiment": "Rac1 G-LISA, PAK-GBD-GST on glutathione plate, absorbance 490 nm", "protocol": "as §1\n(§2) Plates were incubated at room temperature for 1 hour. Plates were washed twice in PBS and blocked by addition of 0.1% BSA in PBS pH 7.2 for 1 hour at room temperature."}, "[8]": {"molecular_target": "T3, endogenous Rac1 of human platelet …", "experiment": "Rac1 G-LISA, PAK-GBD-GST on glutathione plate, loaded platelet extracts, absorbance 490 nm", "protocol": "For RhoA and Rac1 reactions goat anti-mouse secondary at 2 μg/ml is used, for RhoA,B,C reactions donkey anti-chicken secondary at 0.5 μg/ml is used, for Cdc42 reactions goat anti-sheep secondary antibody is used at 0.5 μg/ml. After three washes each of 200 μl PBST the activated Rho proteins are detected using absorbance or luminescence detection as described below.\nas §2"}, "[9]": {"molecular_target": "B5", "experiment": "Cdc42 G-LISA, WASP-GBD on maleimide plate, detection with anti-Cdc42 ACD02, absorbance 490 nm", "protocol": "as §1\n(§3) Referring to FIG. 2C, lysis buffer only (Blank), 5 ng of Cdc42 (61L) or Rac1 (61L) were subjected to a Cdc42 G-LISA assay as detailed in materials and methods (Example 2), and Cdc42 signal was detected by absorbance at 490 nm as described in materials and methods (Example 2)."}, "[10]": {"molecular_target": "B4", "experiment": "G-LISA on maleimide plates (FIG. 2)", "protocol": "as §1, §3"}, "[11]": {"molecular_target": "T2, constitutively active recombinant Rac1, …", "experiment": "competition in Rac1: POSH G-LISA, 5 ng Rac1 (61L), POSH-GBD maleimide plate, ROCK-GST as negative control inhibitor"}, "[12]": {"molecular_target": "T2, constitutively active recombinant Rac1, …", "experiment": "competition in Rac1: POSH G-LISA, 5 ng Rac1 (61L), POSH-GBD maleimide plate, reference PAK-GBD-GST"}, "[13]": {"molecular_target": "active RhoA, sample not stated (Homo sapiens (Human), UniProt P61586 1-190, limits assumed)", "sequence (P61586 1-190 limits assumed)": "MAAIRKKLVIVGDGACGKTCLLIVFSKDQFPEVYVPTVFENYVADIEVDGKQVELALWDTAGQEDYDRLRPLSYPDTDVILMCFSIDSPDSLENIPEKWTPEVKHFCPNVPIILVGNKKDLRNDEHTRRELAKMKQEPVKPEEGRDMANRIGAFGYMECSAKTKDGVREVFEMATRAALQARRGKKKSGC", "experiment": "G-LISA with and without TCA Antigen Presenting Buffer"}, "[14]": {"molecular_target": "T4, endogenous RhoA of human platelet extract loaded with GTPγS (human, UniProt P61586 1-190)", "T4 construct": "also called active RhoA (GTPγS); GTPγS RhoA", "T4 sequence (P61586 1-190 limits assumed)": "as above", "experiment": "RhoA G-LISA on ROCK plate, loaded platelet extracts, treatment with 10% TCA for 2 minutes, detection with clone 384, luminescence", "method": "Platelet cell lysates loaded with GTPγS or GDP nucleotides (10 μg total cell lysate per assay) were diluted with an equal volume of Binding Buffer (20% PEG 8000, Sigma, St. Louis, Mo.) prior to adding to ROCK effector bound plates. The reactions were incubated for 30 minutes at 4° C. on a microtiter titer plate shaker after which wells were washed once with 200 μl of PBST (PBS pH 7.2, 0.05% Tween-20) and immediately treated with one of the following chemical/physical treatments: microwaving for 3 minutes in the presence of 200 μl PBS; microwaving for 3 minutes dry; microwaving for 3 minutes in the presence of 200 μl of 8M urea; 200 μl methanol for 2 minutes; 200 pl ethanol for 2 minutes; 200 μl of 0.5% SDS for 2 minutes, 200 μl of 10% trichloroacetic acid (TCA) for 2 minutes at room temperature. […] After three washes each of 200 μl PBST, the activated Rho proteins were detected using luminescence detection. Luminescence was measured in a SpectroFluor Plus (Techan Inc.) after addition of 50 μl of lumigen reagent (Lumigen Inc., Catalog # PSA-100).\nAfter extract incubation, the plate was treated with MW+PBS, MW/Dry, MW/8 M urea, methanol, ethanol, 0.5% SDS, 10% TCA or no treatment followed by antibody incubation and luminescence detection. […]"}, "[15]": {"molecular_target": "T1, constitutively active recombinant RhoA, …", "experiment": "RhoA G-LISA, ROCK1-GBD on maleimide plate, detection with anti-RhoA clone 384, luminometry", "protocol": "as §1, with “The” for “Active Rho protein (typically 7-15 μg total cell lysate or 1-5 ng of constitutively active recombinant protein) were either added directly to the effector bound G-LISA plate (Rac1 and Cdc42 G-LISAs) or diluted with an equal volume of Binding Buffer (20% PEG 8000, Sigma, St. Louis, Mo.) prior to adding to effector bound plates (RhoA G-LISA). The”"}, "[16]": {"molecular_target": "T4, endogenous RhoA of human platelet …", "experiment": "RhoA G-LISA on ROCK-GBD maleimide plate, 15 µg GDP or GTPγS loaded platelet extract, Binding Buffer, luminometry", "protocol": "as §1"}},
  "data": [
    {"binder": "B1", "values": [
      {"measurement": "signal fold above background", "setting": "[1]", "result": 6, "unit": "fold"}
    ]},
    {"binder": "B2", "values": [
      {"measurement": "signal fold above background", "setting": "[2]", "result": 9, "unit": "fold"},
      {"measurement": "loss of signal in the absence of TCA", "setting": "[3]", "result": "> 80", "unit": "%"},
      {"measurement": "signal fold above background", "setting": "[4]", "result": 7, "unit": "fold"},
      {"measurement": "fold signal of active (GTPγS) Rac1 over inactive (GDP) Rac1", "setting": "[5]", "result": 30, "unit": "fold"}
    ]},
    {"binder": "B3", "values": [
      {"measurement": "loss of signal in the absence of TCA", "setting": "[3]", "result": "> 80", "unit": "%"},
      {"measurement": "IC50", "setting": "[6]", "result": "~0.1", "unit": "µM"},
      {"measurement": "signal fold above background (buffer only)", "setting": "[7]", "result": 8, "unit": "fold"},
      {"measurement": "fold signal of GTPγS (active) over GDP (inactive) loaded platelet extract", "setting": "[8]", "result": 8, "unit": "fold"}
    ]},
    {"binder": "B4", "values": [
      {"measurement": "signal fold above background", "setting": "[9]", "result": 5, "unit": "fold"}
    ]},
    {"binder": "B5", "values": [
      {"measurement": "binding result", "setting": "[10]", "result": "binds"}
    ]},
    {"binder": "B6", "values": [
      {"measurement": "IC50", "setting": "[11]", "result": 8, "unit": "µM"},
      {"measurement": "fold IC50 against PAK", "setting": "[12]", "result": "~80", "unit": "fold"}
    ]},
    {"binder": "B7", "values": [
      {"measurement": "loss of signal in the absence of TCA", "setting": "[13]", "result": "> 80", "unit": "%"},
      {"measurement": "fold signal of GTPγS RhoA over GDP RhoA", "setting": "[14]", "result": "~8", "unit": "fold"},
      {"measurement": "signal fold above background (buffer only)", "setting": "[15]", "result": 6, "unit": "fold"},
      {"measurement": "fold signal of active (GTPγS) RhoA over inactive (GDP) RhoA", "setting": "[16]", "result": 7, "unit": "fold"}
    ]}
  ]
}
